Data from the supplement of paper PMC10065799, “High-throughput profiling of sequence recognition by tyrosine kinases and SH2 domains using bacterial peptide display” (eLife, 2023).

Biological target: MERTK (UniProt Q12866)
Experiment: phosphorylation enrichment, bacterial display (enrichment ratio); higher = better substrate or ligand; peptides without Tyr show the background
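Wherever SH2 binding enrichment of the phosphorylated peptide, bacterial display is given: peptide library displayed on the E. coli surface as eCPX fusions, selected cells deep-sequenced, score is each peptide's frequency after selection divided by its frequency in the input.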
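Wherever phosphorylation enrichment, bacterial display is given: 11-residue human phosphosite peptides and single-mutation variants displayed on the E. coli surface, counted by deep sequencing, each peptide's frequency after selection divided by its frequency in the unselected input library; frequency after pTyr selection over input frequency; kinase dosed for 20-30% of maximal phosphorylation in three min.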

MERTK, sequence (Q12866 whole entry, looked up): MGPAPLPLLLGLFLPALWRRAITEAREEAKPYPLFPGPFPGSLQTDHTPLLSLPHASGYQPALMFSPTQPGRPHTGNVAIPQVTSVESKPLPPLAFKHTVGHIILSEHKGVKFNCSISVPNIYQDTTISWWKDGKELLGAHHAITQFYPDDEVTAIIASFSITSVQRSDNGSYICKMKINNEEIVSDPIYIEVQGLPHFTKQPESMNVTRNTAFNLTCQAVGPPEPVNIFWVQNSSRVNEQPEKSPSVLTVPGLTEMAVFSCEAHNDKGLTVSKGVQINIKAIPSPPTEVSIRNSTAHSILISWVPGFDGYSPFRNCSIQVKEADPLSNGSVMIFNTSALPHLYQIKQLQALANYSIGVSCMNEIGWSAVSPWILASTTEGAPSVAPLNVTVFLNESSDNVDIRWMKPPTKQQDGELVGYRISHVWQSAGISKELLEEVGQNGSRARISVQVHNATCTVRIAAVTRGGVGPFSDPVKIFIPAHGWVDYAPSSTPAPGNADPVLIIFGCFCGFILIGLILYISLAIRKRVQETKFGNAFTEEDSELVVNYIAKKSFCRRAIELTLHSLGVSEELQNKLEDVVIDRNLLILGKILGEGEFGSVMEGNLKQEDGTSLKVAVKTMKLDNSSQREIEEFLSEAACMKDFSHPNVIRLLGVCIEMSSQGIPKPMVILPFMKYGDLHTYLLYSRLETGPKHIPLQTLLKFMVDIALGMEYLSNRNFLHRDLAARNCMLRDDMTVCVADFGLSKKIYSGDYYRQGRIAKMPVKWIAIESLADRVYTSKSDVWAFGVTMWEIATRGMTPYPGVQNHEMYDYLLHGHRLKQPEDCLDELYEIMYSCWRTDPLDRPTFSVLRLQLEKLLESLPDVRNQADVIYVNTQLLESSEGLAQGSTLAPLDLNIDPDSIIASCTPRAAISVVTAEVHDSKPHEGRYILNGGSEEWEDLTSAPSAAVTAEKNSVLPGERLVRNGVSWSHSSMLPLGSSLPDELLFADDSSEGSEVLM

Sequence | phosphorylation enrichment
WFQTKYEELQI [KRT6B_Y360_YF] | 0.403
TNLVPYPRIHF [TUBA1A_Y262] | 0.413
FYDANCDGKEY [MAPRE2_Y162_Y162C] | 0.539
RQSTLYSFFPT [MSH6_Y8_K13T] | 16.8
IGEGTSGVVFK [CDK2_Y15_Y15S_YF] | 0.409
VSFDEYRFRSV [CFTR_Y515_YF] | 0.6
RIAFQYGVTDL [MYBPC3_Y340] | 0.514
KVQVSYKGETK [HSPA1A_Y107] | 0.387
DAVKHYMQFQK [CNGA2_Y395_R399Q] | 0.473
KPPPTYESEEE [BRD4_Y599] | 0.552
LVRAFYCERRW [CARD11_Y970_R975W] | 0.64
LMLVLYGRIFL [HTR1A_Y215_R220L] | 0.651
FMCKVYSDPQP [FGFR1_Y280] | 0.425
GSSSSYGQHGS [HRNR_Y517] | 0.309
YDDGKYVYVVT [RPS6KA3_Y488] | 0.941
LNERHYGGLTG [PGAM2_Y92] | 0.527
FFRDGHMPRQF [GSS_Y270_Y270H_YF] | 0.324
MTFQNYGQALF [FAM20C_Y279] | 0.429
DKATEYSQYMR [MAX_Y70_I71S] | 0.473
DPFHVYIKNRV [KCNE3_Y95_YF] | 0.369
KAIMIYVSSFF [ACTN4_Y260_T259I_YF] | 0.457
QPSALYEDRFL [ASS1_Y83_S79P_YF] | 1.11

Biological target: FGFR3 (UniProt P22607)
Experiment: as above

FGFR3, sequence (P22607 whole entry, looked up): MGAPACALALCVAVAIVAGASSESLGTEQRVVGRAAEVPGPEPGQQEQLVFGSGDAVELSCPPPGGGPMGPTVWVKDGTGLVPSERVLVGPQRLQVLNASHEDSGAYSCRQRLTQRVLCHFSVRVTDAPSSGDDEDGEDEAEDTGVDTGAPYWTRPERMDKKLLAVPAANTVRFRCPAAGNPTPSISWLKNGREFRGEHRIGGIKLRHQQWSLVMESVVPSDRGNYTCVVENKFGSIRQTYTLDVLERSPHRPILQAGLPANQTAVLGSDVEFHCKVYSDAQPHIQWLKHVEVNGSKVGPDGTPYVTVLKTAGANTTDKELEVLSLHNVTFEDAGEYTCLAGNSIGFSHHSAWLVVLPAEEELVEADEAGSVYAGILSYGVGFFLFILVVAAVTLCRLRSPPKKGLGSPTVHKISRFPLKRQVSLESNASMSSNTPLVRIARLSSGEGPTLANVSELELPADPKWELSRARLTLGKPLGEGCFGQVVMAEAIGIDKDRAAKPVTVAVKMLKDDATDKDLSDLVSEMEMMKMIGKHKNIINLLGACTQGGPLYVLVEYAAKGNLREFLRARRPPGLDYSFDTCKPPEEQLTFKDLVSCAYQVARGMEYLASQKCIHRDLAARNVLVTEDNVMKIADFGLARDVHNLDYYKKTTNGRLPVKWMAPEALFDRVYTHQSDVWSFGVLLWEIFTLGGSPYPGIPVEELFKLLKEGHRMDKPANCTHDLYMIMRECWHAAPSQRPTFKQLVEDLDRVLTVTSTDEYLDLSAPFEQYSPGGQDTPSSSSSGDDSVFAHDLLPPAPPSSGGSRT

Sequence | phosphorylation enrichment
WFQTKYEELQI [KRT6B_Y360_YF] | 0.633
TNLVPYPRIHF [TUBA1A_Y262] | 0.471
FYDANCDGKEY [MAPRE2_Y162_Y162C] | 0.922
RQSTLYSFFPT [MSH6_Y8_K13T] | 7.04
IGEGTSGVVFK [CDK2_Y15_Y15S_YF] | 0.561
VSFDEYRFRSV [CFTR_Y515_YF] | 0.699
RIAFQYGVTDL [MYBPC3_Y340] | 1.08
KVQVSYKGETK [HSPA1A_Y107] | 0.432
DAVKHYMQFQK [CNGA2_Y395_R399Q] | 0.449
KPPPTYESEEE [BRD4_Y599] | 0.775
LVRAFYCERRW [CARD11_Y970_R975W] | 0.697
LMLVLYGRIFL [HTR1A_Y215_R220L] | 0.968
FMCKVYSDPQP [FGFR1_Y280] | 0.863
GSSSSYGQHGS [HRNR_Y517] | 0.293
YDDGKYVYVVT [RPS6KA3_Y488] | 1.38
LNERHYGGLTG [PGAM2_Y92] | 0.552
FFRDGHMPRQF [GSS_Y270_Y270H_YF] | 0.487
MTFQNYGQALF [FAM20C_Y279] | 0.739
DKATEYSQYMR [MAX_Y70_I71S] | 0.541
DPFHVYIKNRV [KCNE3_Y95_YF] | 0.764
KAIMIYVSSFF [ACTN4_Y260_T259I_YF] | 0.666
QPSALYEDRFL [ASS1_Y83_S79P_YF] | 1.12

Biological target: Jak2 (UniProt O60674)
Experiment: as above

Jak2, sequence (O60674 whole entry, looked up): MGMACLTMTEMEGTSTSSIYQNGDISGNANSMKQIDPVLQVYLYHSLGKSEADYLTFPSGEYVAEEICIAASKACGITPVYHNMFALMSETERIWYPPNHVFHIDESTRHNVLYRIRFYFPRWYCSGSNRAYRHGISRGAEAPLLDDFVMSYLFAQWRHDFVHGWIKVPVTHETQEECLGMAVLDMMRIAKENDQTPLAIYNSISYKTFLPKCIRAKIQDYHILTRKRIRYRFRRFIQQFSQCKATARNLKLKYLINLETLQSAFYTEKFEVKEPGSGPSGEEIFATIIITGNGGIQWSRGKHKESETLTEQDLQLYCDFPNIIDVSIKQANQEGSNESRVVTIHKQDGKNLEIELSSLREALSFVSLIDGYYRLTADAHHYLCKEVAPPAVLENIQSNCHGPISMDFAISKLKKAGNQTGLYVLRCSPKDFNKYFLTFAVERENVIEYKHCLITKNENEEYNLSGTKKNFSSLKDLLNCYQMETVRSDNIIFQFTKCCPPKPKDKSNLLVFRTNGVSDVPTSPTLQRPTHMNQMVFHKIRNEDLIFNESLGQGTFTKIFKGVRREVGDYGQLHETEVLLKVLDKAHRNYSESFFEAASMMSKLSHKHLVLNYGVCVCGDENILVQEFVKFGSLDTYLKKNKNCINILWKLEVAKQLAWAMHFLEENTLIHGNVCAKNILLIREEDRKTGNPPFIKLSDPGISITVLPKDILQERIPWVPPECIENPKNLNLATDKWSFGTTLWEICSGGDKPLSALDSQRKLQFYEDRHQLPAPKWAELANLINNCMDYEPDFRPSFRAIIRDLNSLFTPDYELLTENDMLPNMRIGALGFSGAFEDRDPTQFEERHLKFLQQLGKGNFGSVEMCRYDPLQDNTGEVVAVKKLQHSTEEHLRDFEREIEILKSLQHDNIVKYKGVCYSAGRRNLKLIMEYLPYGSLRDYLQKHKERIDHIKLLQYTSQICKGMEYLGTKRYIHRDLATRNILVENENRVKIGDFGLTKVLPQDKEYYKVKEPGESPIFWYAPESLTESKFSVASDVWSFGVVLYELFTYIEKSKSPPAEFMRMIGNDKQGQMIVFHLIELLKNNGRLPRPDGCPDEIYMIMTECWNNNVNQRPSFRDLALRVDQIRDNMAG

Sequence | phosphorylation enrichment
WFQTKYEELQI [KRT6B_Y360_YF] | 0.987
TNLVPYPRIHF [TUBA1A_Y262] | 0.624
FYDANCDGKEY [MAPRE2_Y162_Y162C] | 1.13
RQSTLYSFFPT [MSH6_Y8_K13T] | 0.824
IGEGTSGVVFK [CDK2_Y15_Y15S_YF] | 0.582
VSFDEYRFRSV [CFTR_Y515_YF] | 1.14
RIAFQYGVTDL [MYBPC3_Y340] | 1.47
KVQVSYKGETK [HSPA1A_Y107] | 0.428
DAVKHYMQFQK [CNGA2_Y395_R399Q] | 0.461
KPPPTYESEEE [BRD4_Y599] | 1.39
LVRAFYCERRW [CARD11_Y970_R975W] | 0.857
LMLVLYGRIFL [HTR1A_Y215_R220L] | 1.28
FMCKVYSDPQP [FGFR1_Y280] | 1.3
GSSSSYGQHGS [HRNR_Y517] | 0.352
YDDGKYVYVVT [RPS6KA3_Y488] | 1.34
LNERHYGGLTG [PGAM2_Y92] | 4.09
FFRDGHMPRQF [GSS_Y270_Y270H_YF] | 0.491
MTFQNYGQALF [FAM20C_Y279] | 0.893
DKATEYSQYMR [MAX_Y70_I71S] | 0.636
DPFHVYIKNRV [KCNE3_Y95_YF] | 1.08
KAIMIYVSSFF [ACTN4_Y260_T259I_YF] | 0.925
QPSALYEDRFL [ASS1_Y83_S79P_YF] | 0.968

Tested on: c-Abl (mouse)
Experiment: as above

Sequence | phosphorylation enrichment
WFQTKYEELQI [KRT6B_Y360_YF] | 0.651
TNLVPYPRIHF [TUBA1A_Y262] | 0.781
FYDANCDGKEY [MAPRE2_Y162_Y162C] | 0.81
RQSTLYSFFPT [MSH6_Y8_K13T] | 3.62
IGEGTSGVVFK [CDK2_Y15_Y15S_YF] | 0.501
VSFDEYRFRSV [CFTR_Y515_YF] | 0.862
RIAFQYGVTDL [MYBPC3_Y340] | 0.992
KVQVSYKGETK [HSPA1A_Y107] | 0.85
DAVKHYMQFQK [CNGA2_Y395_R399Q] | 0.356
KPPPTYESEEE [BRD4_Y599] | 1.18
LVRAFYCERRW [CARD11_Y970_R975W] | 0.695
LMLVLYGRIFL [HTR1A_Y215_R220L] | 0.996
FMCKVYSDPQP [FGFR1_Y280] | 0.99
GSSSSYGQHGS [HRNR_Y517] | 0.322
YDDGKYVYVVT [RPS6KA3_Y488] | 0.768
LNERHYGGLTG [PGAM2_Y92] | 0.789
FFRDGHMPRQF [GSS_Y270_Y270H_YF] | 0.505
MTFQNYGQALF [FAM20C_Y279] | 0.605
DKATEYSQYMR [MAX_Y70_I71S] | 0.677
DPFHVYIKNRV [KCNE3_Y95_YF] | 0.692
KAIMIYVSSFF [ACTN4_Y260_T259I_YF] | 0.684
QPSALYEDRFL [ASS1_Y83_S79P_YF] | 0.881

Biological target: Fes (UniProt P07332)
Experiment: as above

Fes, sequence (P07332 whole entry, looked up): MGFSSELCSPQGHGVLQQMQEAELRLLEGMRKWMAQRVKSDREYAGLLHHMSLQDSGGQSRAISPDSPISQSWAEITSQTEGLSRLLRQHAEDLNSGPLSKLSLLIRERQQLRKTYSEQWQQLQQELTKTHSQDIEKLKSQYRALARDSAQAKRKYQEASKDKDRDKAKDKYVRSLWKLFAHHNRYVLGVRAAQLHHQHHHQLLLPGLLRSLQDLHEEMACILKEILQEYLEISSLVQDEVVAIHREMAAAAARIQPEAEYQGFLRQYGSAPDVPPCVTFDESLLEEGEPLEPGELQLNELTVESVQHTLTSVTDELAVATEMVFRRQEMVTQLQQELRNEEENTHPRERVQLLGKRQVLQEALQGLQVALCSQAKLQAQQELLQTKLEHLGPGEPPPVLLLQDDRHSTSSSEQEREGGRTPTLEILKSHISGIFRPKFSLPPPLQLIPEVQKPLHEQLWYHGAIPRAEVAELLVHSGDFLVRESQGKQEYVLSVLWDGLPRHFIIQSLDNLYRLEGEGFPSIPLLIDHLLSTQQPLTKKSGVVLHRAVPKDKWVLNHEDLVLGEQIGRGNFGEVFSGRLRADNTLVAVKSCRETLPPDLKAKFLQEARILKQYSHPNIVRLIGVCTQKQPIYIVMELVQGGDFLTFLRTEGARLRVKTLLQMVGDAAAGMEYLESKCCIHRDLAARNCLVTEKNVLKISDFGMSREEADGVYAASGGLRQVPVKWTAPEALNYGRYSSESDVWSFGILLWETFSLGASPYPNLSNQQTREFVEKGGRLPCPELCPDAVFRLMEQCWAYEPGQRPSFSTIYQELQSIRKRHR

Sequence | phosphorylation enrichment
WFQTKYEELQI [KRT6B_Y360_YF] | 0.981
TNLVPYPRIHF [TUBA1A_Y262] | 0.655
FYDANCDGKEY [MAPRE2_Y162_Y162C] | 1.4
RQSTLYSFFPT [MSH6_Y8_K13T] | 1.26
IGEGTSGVVFK [CDK2_Y15_Y15S_YF] | 0.878
VSFDEYRFRSV [CFTR_Y515_YF] | 1.22
RIAFQYGVTDL [MYBPC3_Y340] | 1.28
KVQVSYKGETK [HSPA1A_Y107] | 0.511
DAVKHYMQFQK [CNGA2_Y395_R399Q] | 0.496
KPPPTYESEEE [BRD4_Y599] | 1.88
LVRAFYCERRW [CARD11_Y970_R975W] | 0.745
LMLVLYGRIFL [HTR1A_Y215_R220L] | 1.93
FMCKVYSDPQP [FGFR1_Y280] | 1.64
GSSSSYGQHGS [HRNR_Y517] | 0.472
YDDGKYVYVVT [RPS6KA3_Y488] | 1.27
LNERHYGGLTG [PGAM2_Y92] | 0.856
FFRDGHMPRQF [GSS_Y270_Y270H_YF] | 0.612
MTFQNYGQALF [FAM20C_Y279] | 0.827
DKATEYSQYMR [MAX_Y70_I71S] | 0.864
DPFHVYIKNRV [KCNE3_Y95_YF] | 1.19
KAIMIYVSSFF [ACTN4_Y260_T259I_YF] | 1.06
QPSALYEDRFL [ASS1_Y83_S79P_YF] | 1.4

Biological target: Grb2 SH2 (UniProt P62993)
Experiment: SH2 binding enrichment of the phosphorylated peptide, bacterial display (enrichment ratio); higher = better substrate or ligand; peptides without Tyr show the background

Grb2 SH2, sequence (P62993 whole entry, looked up): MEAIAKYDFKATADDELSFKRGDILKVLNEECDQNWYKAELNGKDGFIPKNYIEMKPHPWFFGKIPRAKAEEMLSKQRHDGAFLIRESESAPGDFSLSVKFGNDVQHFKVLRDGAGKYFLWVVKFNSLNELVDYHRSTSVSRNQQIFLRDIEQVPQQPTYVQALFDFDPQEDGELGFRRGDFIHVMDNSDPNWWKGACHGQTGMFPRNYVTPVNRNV

Sequence | SH2 binding enrichment
WFQTKYEELQI [KRT6B_Y360_YF] | 0.953
TNLVPYPRIHF [TUBA1A_Y262] | 0.997
FYDANCDGKEY [MAPRE2_Y162_Y162C] | 1.03
RQSTLYSFFPT [MSH6_Y8_K13T] | 1
IGEGTSGVVFK [CDK2_Y15_Y15S_YF] | 0.844
VSFDEYRFRSV [CFTR_Y515_YF] | 0.776
RIAFQYGVTDL [MYBPC3_Y340] | 0.93
KVQVSYKGETK [HSPA1A_Y107] | 0.875
DAVKHYMQFQK [CNGA2_Y395_R399Q] | 0.768
KPPPTYESEEE [BRD4_Y599] | 0.977
LVRAFYCERRW [CARD11_Y970_R975W] | 0.953
LMLVLYGRIFL [HTR1A_Y215_R220L] | 1.16
FMCKVYSDPQP [FGFR1_Y280] | 0.733
GSSSSYGQHGS [HRNR_Y517] | 0.868
YDDGKYVYVVT [RPS6KA3_Y488] | 0.907
LNERHYGGLTG [PGAM2_Y92] | 0.761
FFRDGHMPRQF [GSS_Y270_Y270H_YF] | 0.741
MTFQNYGQALF [FAM20C_Y279] | 0.921
DKATEYSQYMR [MAX_Y70_I71S] | 0.643
DPFHVYIKNRV [KCNE3_Y95_YF] | 1.13
KAIMIYVSSFF [ACTN4_Y260_T259I_YF] | 0.948
QPSALYEDRFL [ASS1_Y83_S79P_YF] | 0.783

Biological target: SHP2-C SH2
Experiment: as above

Sequence | SH2 binding enrichment
WFQTKYEELQI [KRT6B_Y360_YF] | 1.12
TNLVPYPRIHF [TUBA1A_Y262] | 0.842
FYDANCDGKEY [MAPRE2_Y162_Y162C] | 0.641
RQSTLYSFFPT [MSH6_Y8_K13T] | 1.4
IGEGTSGVVFK [CDK2_Y15_Y15S_YF] | 0.786
VSFDEYRFRSV [CFTR_Y515_YF] | 0.55
RIAFQYGVTDL [MYBPC3_Y340] | 0.815
KVQVSYKGETK [HSPA1A_Y107] | 0.656
DAVKHYMQFQK [CNGA2_Y395_R399Q] | 0.781
KPPPTYESEEE [BRD4_Y599] | 0.719
LVRAFYCERRW [CARD11_Y970_R975W] | 0.681
LMLVLYGRIFL [HTR1A_Y215_R220L] | 0.776
FMCKVYSDPQP [FGFR1_Y280] | 0.511
GSSSSYGQHGS [HRNR_Y517] | 1.43
YDDGKYVYVVT [RPS6KA3_Y488] | 0.531
LNERHYGGLTG [PGAM2_Y92] | 0.53
FFRDGHMPRQF [GSS_Y270_Y270H_YF] | 0.611
MTFQNYGQALF [FAM20C_Y279] | 0.783
DKATEYSQYMR [MAX_Y70_I71S] | 0.82
DPFHVYIKNRV [KCNE3_Y95_YF] | 0.936
KAIMIYVSSFF [ACTN4_Y260_T259I_YF] | 0.967
QPSALYEDRFL [ASS1_Y83_S79P_YF] | 0.684

Biological target: c-Src SH2
Experiment: as above

Sequence | SH2 binding enrichment
WFQTKYEELQI [KRT6B_Y360_YF] | 8.63
TNLVPYPRIHF [TUBA1A_Y262] | 0.619
FYDANCDGKEY [MAPRE2_Y162_Y162C] | 0.617
RQSTLYSFFPT [MSH6_Y8_K13T] | 0.752
IGEGTSGVVFK [CDK2_Y15_Y15S_YF] | 0.515
VSFDEYRFRSV [CFTR_Y515_YF] | 0.477
RIAFQYGVTDL [MYBPC3_Y340] | 0.535
KVQVSYKGETK [HSPA1A_Y107] | 0.493
DAVKHYMQFQK [CNGA2_Y395_R399Q] | 0.62
KPPPTYESEEE [BRD4_Y599] | 0.728
LVRAFYCERRW [CARD11_Y970_R975W] | 0.49
LMLVLYGRIFL [HTR1A_Y215_R220L] | 0.556
FMCKVYSDPQP [FGFR1_Y280] | 0.439
GSSSSYGQHGS [HRNR_Y517] | 0.375
YDDGKYVYVVT [RPS6KA3_Y488] | 0.595
LNERHYGGLTG [PGAM2_Y92] | 0.415
FFRDGHMPRQF [GSS_Y270_Y270H_YF] | 0.494
MTFQNYGQALF [FAM20C_Y279] | 0.515
DKATEYSQYMR [MAX_Y70_I71S] | 0.609
DPFHVYIKNRV [KCNE3_Y95_YF] | 0.604
KAIMIYVSSFF [ACTN4_Y260_T259I_YF] | 0.567
QPSALYEDRFL [ASS1_Y83_S79P_YF] | 0.633
